B1: Speckle-type POZ protein (Homo sapiens), O43791 (parent)
chain: MSRVPSPPPPAEMSSGPVAESWCYTQIKVVKFSYMWTINNFSFCREEMGEVIKSSTFSSGANDKLKWCLRVNPKGLDEESKDYLSLYLLLVSCPKSEVRAKFKFSILNAKGEETKAMESQRAYRFVQGKDWGFKKFIRRDFLLDEANGLLPDDKLTLFCEVSVVQDSVNISGQNTMNMVKVPECRLADELGGLWENSRFTDCCLCVAGQEFQAHKAILAARSPVFSAMFEHEMEESKKNRVEINDVEPEVFKEMMCFIYTGKAPNLDKMADDLLAAADKYALERLKVMCEDALCSNLSVENAAEILILADLHSADQLKTQAVDFINYHASDVLETSGWKSMVVSHPHLVAEAYRSLASAQCPFLGPPRKRLKQS
partner: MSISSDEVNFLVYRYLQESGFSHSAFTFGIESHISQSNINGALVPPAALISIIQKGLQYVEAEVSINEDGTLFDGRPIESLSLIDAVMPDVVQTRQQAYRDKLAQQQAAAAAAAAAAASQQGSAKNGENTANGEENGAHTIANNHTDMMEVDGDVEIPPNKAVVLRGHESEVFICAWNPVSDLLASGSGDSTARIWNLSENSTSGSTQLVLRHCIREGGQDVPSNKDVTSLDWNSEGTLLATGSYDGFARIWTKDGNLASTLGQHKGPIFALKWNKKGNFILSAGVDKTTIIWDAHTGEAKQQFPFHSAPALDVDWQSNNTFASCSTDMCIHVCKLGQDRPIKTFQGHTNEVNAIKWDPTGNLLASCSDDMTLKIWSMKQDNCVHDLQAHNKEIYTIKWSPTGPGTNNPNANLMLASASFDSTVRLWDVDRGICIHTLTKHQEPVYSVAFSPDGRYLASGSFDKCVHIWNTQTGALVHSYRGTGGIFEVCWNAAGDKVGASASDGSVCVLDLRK
B2: Speckle-type POZ protein (Homo sapiens), O43791 (parent)
chain: B1 chain
partner: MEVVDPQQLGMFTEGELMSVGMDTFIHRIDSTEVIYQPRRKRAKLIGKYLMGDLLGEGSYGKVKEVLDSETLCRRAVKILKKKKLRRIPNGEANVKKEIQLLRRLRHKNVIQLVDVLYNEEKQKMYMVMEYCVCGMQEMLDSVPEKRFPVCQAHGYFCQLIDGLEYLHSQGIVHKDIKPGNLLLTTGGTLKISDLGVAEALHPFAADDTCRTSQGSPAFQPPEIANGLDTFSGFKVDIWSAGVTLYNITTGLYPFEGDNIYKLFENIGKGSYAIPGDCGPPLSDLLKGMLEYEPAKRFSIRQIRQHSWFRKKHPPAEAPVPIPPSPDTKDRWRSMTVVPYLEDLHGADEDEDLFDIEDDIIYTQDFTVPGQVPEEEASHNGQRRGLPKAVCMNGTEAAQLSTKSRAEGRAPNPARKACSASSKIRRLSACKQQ

Variants of: B1
Conditions: with tbl1r_human TBL1XR1, Q9BZK7

Variant	effect of a mutation on the interaction
MSRVPSPPPPAEMSSGPVAESWCYTQIKVVKFSYMWTINNFSFCREEMGEVIKSSTFSSGANDKLKWCLRVNPKGLDEESKDYLSLYLLLVSCPKSEVRAKFKFSILNAKGEETKAMESQRAYRFVQGKDWGLKKFIRRDFLLDEANGLLPDDKLTLFCEVSVVQDSVNISGQNTMNMVKVPECRLADELGGLWENSRFTDCCLCVAGQEFQAHKAILAARSPVFSAMFEHEMEESKKNRVEINDVEPEVFKEMMCFIYTGKAPNLDKMADDLLAAADKYALERLKVMCEDALCSNLSVENAAEILILADLHSADQLKTQAVDFINYHASDVLETSGWKSMVVSHPHLVAEAYRSLASAQCPFLGPPRKRLKQS [F133L]	with no effect

Variants of: B1
Conditions: with tbl1r_human TBL1XR1, Q9BZK7
Remark: another data set of the same source

Variant	effect of a mutation on the interaction
MSRVPSPPPPAEMSSGPVAESWCYTQIKVVKFSYMWTINNFSFCREEMGEVIKSSTFSSGANDKLKWCLRVNPKGLDEESKDYLSLYLLLVSCPKSEVRAKFKFSILNAKGEETKAMESQRAYRFVQGKDWGVKKFIRRDFLLDEANGLLPDDKLTLFCEVSVVQDSVNISGQNTMNMVKVPECRLADELGGLWENSRFTDCCLCVAGQEFQAHKAILAARSPVFSAMFEHEMEESKKNRVEINDVEPEVFKEMMCFIYTGKAPNLDKMADDLLAAADKYALERLKVMCEDALCSNLSVENAAEILILADLHSADQLKTQAVDFINYHASDVLETSGWKSMVVSHPHLVAEAYRSLASAQCPFLGPPRKRLKQS [F133V]	with no effect

Variants of: B1
Conditions: with tbl1r_human TBL1XR1, Q9BZK7
Remark: another data set of the same source

Variant	effect of a mutation on the interaction
MSRVPSPPPPAEMSSGPVAESWCYTQIKVVKFSYMWTINNFSFCREEMGEVIKSSTFSSGANDKLKWCLRVNPKGLDEESKDYLSLYLLLVSCPKSEVRAKCKFSILNAKGEETKAMESQRAYRFVQGKDWGFKKFIRRDFLLDEANGLLPDDKLTLFCEVSVVQDSVNISGQNTMNMVKVPECRLADELGGLWENSRFTDCCLCVAGQEFQAHKAILAARSPVFSAMFEHEMEESKKNRVEINDVEPEVFKEMMCFIYTGKAPNLDKMADDLLAAADKYALERLKVMCEDALCSNLSVENAAEILILADLHSADQLKTQAVDFINYHASDVLETSGWKSMVVSHPHLVAEAYRSLASAQCPFLGPPRKRLKQS [F102C]	with no effect

Variants of: B1
Conditions: with tbl1r_human TBL1XR1, Q9BZK7
Remark: another data set of the same source

Variant	effect of a mutation on the interaction
MSRVPSPPPPAEMSSGPVAESWCYTQIKVVKFSYMWTINNFSFCREEMGEVIKSSTFSSGANDKLKWCLRVNPKGLDEESKDYLSLCLLLVSCPKSEVRAKFKFSILNAKGEETKAMESQRAYRFVQGKDWGFKKFIRRDFLLDEANGLLPDDKLTLFCEVSVVQDSVNISGQNTMNMVKVPECRLADELGGLWENSRFTDCCLCVAGQEFQAHKAILAARSPVFSAMFEHEMEESKKNRVEINDVEPEVFKEMMCFIYTGKAPNLDKMADDLLAAADKYALERLKVMCEDALCSNLSVENAAEILILADLHSADQLKTQAVDFINYHASDVLETSGWKSMVVSHPHLVAEAYRSLASAQCPFLGPPRKRLKQS [Y87C]	with no effect

Variants of: B2
Conditions: with stk11_human STK11, Q15831

Variant	effect of a mutation on the interaction
MSRVPSPPPPAEMSSGPVAESWCYTQIKVVKFSYMWTINNFSFCREEMGEVIKSSTFSSGANDKLKWCLRVNPKGLDEESKDYLSLYLLLVSCPKSEVRAKCKFSILNAKGEETKAMESQRAYRFVQGKDWGFKKFIRRDFLLDEANGLLPDDKLTLFCEVSVVQDSVNISGQNTMNMVKVPECRLADELGGLWENSRFTDCCLCVAGQEFQAHKAILAARSPVFSAMFEHEMEESKKNRVEINDVEPEVFKEMMCFIYTGKAPNLDKMADDLLAAADKYALERLKVMCEDALCSNLSVENAAEILILADLHSADQLKTQAVDFINYHASDVLETSGWKSMVVSHPHLVAEAYRSLASAQCPFLGPPRKRLKQS [F102C]	with no effect

Variants of: B2
Conditions: with stk11_human STK11, Q15831
Remark: another data set of the same source

Variant	effect of a mutation on the interaction
MSRVPSPPPPAEMSSGPVAESWCYTQIKVVKFSYMWTINNFSFCREEMGEVIKSSTFSSGANDKLKWCLRVNPKGLDEESKDYLSLYLLLVSCPKSEVRAKFKFSILNAKGEETKAMESQRAYRFVQGKDWGVKKFIRRDFLLDEANGLLPDDKLTLFCEVSVVQDSVNISGQNTMNMVKVPECRLADELGGLWENSRFTDCCLCVAGQEFQAHKAILAARSPVFSAMFEHEMEESKKNRVEINDVEPEVFKEMMCFIYTGKAPNLDKMADDLLAAADKYALERLKVMCEDALCSNLSVENAAEILILADLHSADQLKTQAVDFINYHASDVLETSGWKSMVVSHPHLVAEAYRSLASAQCPFLGPPRKRLKQS [F133V]	with no effect

Variants of: B2
Conditions: with stk11_human STK11, Q15831
Remark: another data set of the same source

Variant	effect of a mutation on the interaction
MSRVPSPPPPAEMSSGPVAESWCYTQIKVVKFSYMWTINNFSFCREEMGEVIKSSTFSSGANDKLKWCLRVNPKGLDEESKDYLSLYLLLVSCPKSEVRAKFKFSILNAKGEETKAMESQRAYRFVQGKDWGLKKFIRRDFLLDEANGLLPDDKLTLFCEVSVVQDSVNISGQNTMNMVKVPECRLADELGGLWENSRFTDCCLCVAGQEFQAHKAILAARSPVFSAMFEHEMEESKKNRVEINDVEPEVFKEMMCFIYTGKAPNLDKMADDLLAAADKYALERLKVMCEDALCSNLSVENAAEILILADLHSADQLKTQAVDFINYHASDVLETSGWKSMVVSHPHLVAEAYRSLASAQCPFLGPPRKRLKQS [F133L]	with no effect

Variants of: B2
Conditions: with stk11_human STK11, Q15831
Remark: another data set of the same source

Variant	effect of a mutation on the interaction
MSRVPSPPPPAEMSSGPVAESWCYTQIKVVKFSYMWTINNFSFCREEMGEVIKSSTFSSGANDKLKWCLRVNPKGLDEESKDYLSLCLLLVSCPKSEVRAKFKFSILNAKGEETKAMESQRAYRFVQGKDWGFKKFIRRDFLLDEANGLLPDDKLTLFCEVSVVQDSVNISGQNTMNMVKVPECRLADELGGLWENSRFTDCCLCVAGQEFQAHKAILAARSPVFSAMFEHEMEESKKNRVEINDVEPEVFKEMMCFIYTGKAPNLDKMADDLLAAADKYALERLKVMCEDALCSNLSVENAAEILILADLHSADQLKTQAVDFINYHASDVLETSGWKSMVVSHPHLVAEAYRSLASAQCPFLGPPRKRLKQS [Y87C]	with no effect

— IntAct's records for PubMed 35512704
